B1: FITC-thrombin DNA aptamer with T15 linker (30 mer) (ssDNA)
DNA: GGTTGGTGTGGTTGGTTTTTTTTTTTTTTT
B2: (BAP)-aptamer, single label (ssDNA)
DNA: GGTTGGTGTGGTTGGTTTTTTTTTTTTTTT
modifications: 3' single Z-QG-ddUTP crosslinked to NK14-BAP
B3: (BAP)-(PEG)3-aptamer, single label (ssDNA)
DNA: GGTTGGTGTGGTTGGTTTTTTTTTTTTTTT
modifications: 3' single Z-QG-(PEG)3-ddUTP crosslinked to NK14-BAP

Target: thrombin (UniProt P00734;P00734 P00734:328-363,P00734:364-622)
Experiment: ELONA

Binding result, binds:
B1, B2, B3

Reference: US20150284762, “METHOD FOR PRODUCING PROTEIN-NUCLEIC ACID CONJUGATE, AND METHOD FOR DETECTING TARGET SUBSTANCE” (KYUSHU UNIVERSITY, NATIONAL UNIVERSITY CORPORATION, published 2015)
